Experimental data: publication PMC4384432

Molecular target: β-haemoglobin (β^h), haem-bound, from human blood (human)
Test: SEC-MALS

Substance: β-haemoglobin (β^h), haem-bound, from human blood (natural protein)
- stoichiometry N: 4
